Patent US20260042849A1, “PROTEASE-CLEAVABLE MOIETIES AND METHODS OF USE THEREOF” (CytomX Therapeutics, Inc., priority 2022, published 2026)
“And” between values parts separate entries of the source, which are not always exact repeats. Equal entries are not always repeated. Where two headings read alike, the source gives them in different places. Ends that are not written are not given here.

Legend:
MMP2 [1] = target: T1, MMP2 (Homo sapiens, UniProt P08253); assay: In vitro cleavability of activatable antibodies, capillary electrophoresis; assay type: biochemical; parameters: purchased R&D Systems 902-MP; settings: for Cleavability (%) 4h MMP2: 500 nM activatable antibody, 10 nM protease, 4 hours at 37° C.
T1 sequence (P08253 110-660): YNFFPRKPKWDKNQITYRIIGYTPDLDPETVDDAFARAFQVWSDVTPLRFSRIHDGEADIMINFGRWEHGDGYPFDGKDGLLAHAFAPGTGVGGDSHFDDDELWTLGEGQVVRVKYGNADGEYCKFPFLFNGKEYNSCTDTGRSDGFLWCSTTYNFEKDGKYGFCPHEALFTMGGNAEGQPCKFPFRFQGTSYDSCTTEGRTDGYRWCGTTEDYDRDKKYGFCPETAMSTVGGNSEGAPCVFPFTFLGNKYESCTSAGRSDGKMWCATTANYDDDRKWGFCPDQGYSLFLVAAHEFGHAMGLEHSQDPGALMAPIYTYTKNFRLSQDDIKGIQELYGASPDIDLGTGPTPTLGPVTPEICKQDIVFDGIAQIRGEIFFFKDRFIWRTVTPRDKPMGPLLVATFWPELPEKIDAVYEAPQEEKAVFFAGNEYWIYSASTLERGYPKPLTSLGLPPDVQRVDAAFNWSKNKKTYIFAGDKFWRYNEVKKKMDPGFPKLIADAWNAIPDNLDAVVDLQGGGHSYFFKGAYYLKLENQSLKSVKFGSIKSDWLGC

MMP14 [2] = target: T2, MMP14 (Homo sapiens, UniProt P50281); assay: as above; assay type: biochemical; parameters: key to Cleavability (%) 4h MMP14: “—” indicates below limit of quantification; settings: for Cleavability (%) 4h MMP14: 500 nM activatable antibody, 10 nM protease, 4 hours at 37° C.; for percent activation for MMP14: Tables 6A-6C, activatable antibody format
MMP9 [3] = target: T3, MMP9 (Homo sapiens, UniProt P14780); assay: as above; assay type: biochemical; parameters: purchased R&D Systems 911-MP; key to Cleavability (%) 4h MMP9: “—” indicates below limit of quantification; settings: for Cleavability (%) 4h MMP9: 500 nM activatable antibody, 10 nM protease, 4 hours at 37° C.
MT-SP1 [4] = target: T4, MT-SP1 (Homo sapiens, UniProt Q9Y5Y6); assay: as above; assay type: biochemical; parameters: purchased R&D Systems 3946-SEB
T4 sequence (Q9Y5Y6 615-855 limits assumed): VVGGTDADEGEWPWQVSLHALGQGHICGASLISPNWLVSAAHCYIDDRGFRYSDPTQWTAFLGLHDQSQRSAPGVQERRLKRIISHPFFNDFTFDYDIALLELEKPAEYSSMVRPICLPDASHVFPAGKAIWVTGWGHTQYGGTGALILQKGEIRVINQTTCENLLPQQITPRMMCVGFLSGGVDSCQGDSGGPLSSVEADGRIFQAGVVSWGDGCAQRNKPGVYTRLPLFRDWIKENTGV
Experimental: The studies provided herein evaluate the in vitro cleavability of activatable antibodies containing exemplary CMs that include a substrate cleavable by a matrix metalloprotease (MMP) and/or a substrate cleavable by a matriptase (MT-SP1).
Each activatable antibody (500 nM) was incubated with 10 nM of the indicated single protease for 4 hours at 37° C. Human recombinant proteases were purchased from R&D Systems: MT-SP1 (catalog No: 3946-SEB), MMP2 (catalog No: 902-MP), MMP9 (catalog No: 911-MP), and MMP14 (catalog No: 918-MP). […] Protease concentrations were determined by active site titration. Activity assays were performed in the following buffers: 50 mM TRIS-HCl (pH 7.4), 150 mM NaCl, 0.05% Tween 20 for MT-SP1, 50 mM Tris-HCl, 10 mM CaCl2), 150 mM NaCl, 0.05% (w/v) Brij-35, pH 7.5 for MMP2 and MMP9, and 50 mM HEPES (pH 6.8), 10 mM CaCl2), 0.5 mM MgCl2 for MMP14. Following incubation, the presence of cleavage product was determined by capillary electrophoresis for each protease enzyme using a LabChip GXII Touch system (Perkin Elmer) with the HT Protein Express 100 protocol (Perkin Elmer). LabChip GXII Touch HT Chips (Perkin Elmer #760499) were set up using the protocol of the Protein Express Assay Reagent Kit (Perkin Elmer #CLS960008).

MMP2 [5] = target: T1, MMP2; assay: Internally quenched peptide probe cleavage assay (Example 8); assay type: biochemical; settings: 20 μM peptide probe, 20 nM protease, 37° C.
Text: (§1) The study provided herein evaluated the cleavability kinetics (i.e., pM/s and kcat/KM (M^−1 s^−1) of CMs with matriptase (MT-SP1) and matrix metalloprotease (MMP) 2 (MMP2), MMP9, and MMP14. The CMs listed in Table 10 below were presented in an internally quenched peptide probe format, rather than included in an activatable antibody format. In the internally quenched probes, the CM sequence was positioned between a 7-methoxycoumarin-4-acetyl (MCA) fluorophore and a 2,4-dinitrophenyl (DNP) quencher such that cleavage of the CM sequence produced a fluorescence signal. The probes were of the following designs: (MCA)-Gly-Ser-X1-X2-Pro-X3-Gly-Leu-X4-X5-Gly-Ser-Lys (DNP)-D-Arg (SEQ ID NO: 178) where X1 is Arg or is absent, X2 is Ser or is absent, X3 is Met or Trp, X4 is Lys, Arg, or is absent, and X5 is Ser or is absent; (MCA)-Ser-X1-Pro-X2-Gly-Leu-X3-X4-Gly-Ser-Lys (DNP)-D-Arg (SEQ ID NO: 179) where X1 is Ala, X2 is Met, X3 is Lys, and X4 is His; and (MCA)-Gly-Ser-Pro-X1-Gly-Leu-X2-Gly-Gly-Ser-Lys (DNP)-D-Arg (SEQ ID NO: 180) where X1 is Met and X2 is Lys, as indicated in Table 10. The cleavage rates (pM/s) were measured using 20 μM internally quenched peptide probe and 20 nM MT-SP1, MMP2, MMP9, or MMP14. Cleavability kinetics (i.e., pM/s and kcat/KM (M^−1 s^−1)) were measured at 37° C. in 96- or 384-well plate format in the following buffers: 50 mM TRIS-HCl (pH 7.4), 150 mM NaCl, 0.05% Tween 20 for MT-SP1, 50 mM Tris-HCl (pH 7.5), 10 mM CaCl2, 150 mM NaCl, 0.05% (w/v) Brij-35 for MMP2 and MMP9, and 50 mM HEPES (pH 6.8), 10 mM CaCl2), 0.5 mM MgCl2, 0.05% (w/v) Brij-35 for MMP14. Cleavability kinetics were determined on an Infinite 200 PRO (Tecan) multimode plate reader using a fluorescence excitation wavelength of 320 nm and an emission wavelength of 405 nm.

MT-SP1 [6] = target: T4, MT-SP1; assay: as above; assay type: biochemical; settings: 20 μM peptide probe, 20 nM protease, 37° C.
Text: as §1

MMP14 [7] = target: T2, MMP14; assay: as above; assay type: biochemical; settings: 20 μM peptide probe, 20 nM protease, 37° C.
Text: as §1

MMP9 [8] = target: T3, MMP9; assay: as above; assay type: biochemical; settings: 20 μM peptide probe, 20 nM protease, 37° C.
Text: as §1

recombinant EGFR = recombinant EGFR (Homo sapiens, UniProt P00533); assay: Solid-phase binding assay (ELISA) of anti-EGFR activatable antibodies; settings: compared to activatable antibodies with control CM 2001
[9] = tested on: H292 (human lung cancer-derived cell line) subcutaneous xenograft tumors; assay: In vivo efficacy in mouse H292 xenograft model; parameters: species or system nu/nu mice; settings: 9 mg/kg intraperitoneally on day 1, H292 xenograft
Experimental: In this study, H292 (human lung cancer-derived cell line) subcutaneous xenograft tumors in female nu/nu mice of 6-8 weeks of age were grown to an average volume of 95-247 mm^3. […] The mice were then randomized into groups of 8 mice each and each group was dosed intraperitoneally on day 1 with 9 mg/kg of the indicated test article.

[10] = tested on: human bone marrow aspirates; assay: In situ stability in human bone marrow aspirates; assay type: in vitro ADME; settings: 20 μg/mL, 37° C., 21 or 24 hours; normalized to CM 2001 cleavage
Experimental: Fresh human bone marrow aspirates from healthy donors were purchased from Stemcell Technology Inc. (Catalog No. 70502) and AllCells Inc. and were processed to lyse red blood cells and washed 5 times with buffer or serum-free media. […] An equal volume of AF647-labeled c225 activatable antibodies prepared at 40 μg/mL in serum-free RPMI media were then added to form a mixture and incubated at a final concentration of 20 μg/mL at 37° C. for 21 or 24 hours. Cells were pelleted through centrifugation for 5 min at 300× g. Supernatants were collected from each incubated mixture and transferred into a well of a 96-well PCR plate for assay by capillary electrophoresis. Each supernatant sample was mixed with Pico Sample Buffer (Perkin Elmer) containing 2-beta-mercaptoethanol at four parts sample and one part of Pico Sample Buffer and then heated at 95° C. for 10 minutes. Substrate cleavage was measured by capillary electrophoresis using a LabChip GXII Touch system (Perkin Elmer) with the HT Pico Protein Express 100 protocol (Perkin Elmer). Protein Express Assay LabChips (Perkin Elmer #760499) were set up using the protocol of the Protein Pico Assay Reagent Kit (Perkin Elmer #760498).

[11] = mouse
[12] = Tables 6A-6C, activatable antibody format

T3 sequence (P14780 107-707 limits assumed): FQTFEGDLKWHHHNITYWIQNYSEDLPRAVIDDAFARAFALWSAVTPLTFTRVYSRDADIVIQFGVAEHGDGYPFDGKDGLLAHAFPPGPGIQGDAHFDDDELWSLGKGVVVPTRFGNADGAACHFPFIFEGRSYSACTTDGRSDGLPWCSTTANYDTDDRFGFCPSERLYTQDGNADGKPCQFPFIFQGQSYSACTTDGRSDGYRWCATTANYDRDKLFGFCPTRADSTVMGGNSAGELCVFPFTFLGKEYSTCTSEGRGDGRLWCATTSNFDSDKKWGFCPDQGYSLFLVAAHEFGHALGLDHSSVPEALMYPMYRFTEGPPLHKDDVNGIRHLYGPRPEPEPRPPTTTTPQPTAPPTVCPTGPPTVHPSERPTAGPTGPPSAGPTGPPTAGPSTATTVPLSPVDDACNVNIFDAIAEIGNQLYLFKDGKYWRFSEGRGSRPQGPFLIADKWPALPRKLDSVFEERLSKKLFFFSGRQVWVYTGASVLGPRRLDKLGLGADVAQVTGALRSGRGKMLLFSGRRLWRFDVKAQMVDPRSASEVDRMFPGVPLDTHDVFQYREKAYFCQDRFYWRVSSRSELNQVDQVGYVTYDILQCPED

Substance | Cleavability (%) 4h MMP2 (MMP2 [1]) | Cleavability (%) 4h MMP14 (MMP14 [2]) | Cleavability (%) 4h MMP9 (MMP9 [3]) | Probe Cleavage (pM/s) MMP2 (MMP2 [5]) [pM/s] | Probe Cleavage (pM/s) MT-SP1 (MT-SP1 [6]) [pM/s] | Probe Cleavage (pM/s) MMP14 (MMP14 [7]) [pM/s] | Probe Cleavage (pM/s) MMP9 (MMP9 [8]) [pM/s] | further results
PYGL [CM 7047, also tested as internally quenched peptide probe] | 27.5% | — | 19.2% |  |  |  |  | 
ISSGLLSGRSDNH [CM 2001, reference compound] | 50.6% and 44.1% and 52.2% | 82.2% and 80.2% and 92.9% | — |  |  |  |  | Cleavability (%) 4h MT-SP1 (MT-SP1 [4]; 500 nM activatable antibody, 10 nM protease, 4 hours at 37° C.): 30.5%
PWGL [CM 7041, also tested as internally quenched peptide probe] | 15.8% | — | 12.3% |  |  |  |  | 
PMGLK (also: internally quenched fluorophore/quencher probe, groups not placed) [CM 7019, tested as internally quenched peptide probe] |  |  |  | 4690 | 46.1 | 5950 | 6080 | 
PMGLKS (also: internally quenched fluorophore/quencher probe, groups not placed) [CM 7018, tested as internally quenched peptide probe] |  |  |  | 119000 | 14100 | 153000 | 133000 | 
PWGLRS [tested as internally quenched peptide probe] |  |  |  | 3800 | 1230 | 4380 | 3830 | 
GPYGLL [CM 7048] | 96.1% | 66.3% | 98.3% |  |  |  |  | 
PWGLS [CM 7045] | 40.2% | 15.6% | 74.5% |  |  |  |  | percent activation for MMP14 (MMP14 [2]): greater than 10%; effect of CM on apparent masking efficiency (recombinant EGFR): increasing the apparent masking efficiency
APMGLKH [CM 7046, also tested as internally quenched peptide probe] | 95.7% | 95.3% | 45.1% | 81700 | 3330 | 114000 | 115000 | in vivo efficacy (mean tumor volume, FIG. 2A) [9]: comparable with the activatable antibody with the control CM 2001; percent activation for MMP2 (MMP2 [1]; [12]): greater than 90%; in situ cleavage in human bone marrow aspirates (FIG. 3) [10]: demonstrated a resistance to cleavage in situ in the bone marrow; percent activation for MMP14 (MMP14 [2]): greater than 90%; in vivo stability versus control CMs [11]: higher in vivo stability; Cleavability (%) 4h MT-SP1 (MT-SP1 [4]): 5.37%; effect of CM on apparent masking efficiency (recombinant EGFR): increasing the apparent masking efficiency; percent activation for MMP9 (MMP9 [3]; [12]): greater than 30%
RSPWGL [tested as internally quenched peptide probe] |  |  |  | 11700 | 2390 | 9580 | 25500 | 
GPWGLL [CM 7043] | 86.0% | 77.6% | 96.2% |  |  |  |  | in vivo stability versus control CMs [11]: higher in vivo stability; In Vivo % Activation (nu/nu, day 7) ([11]; ip, 10 mg/kg): 44%
